Test results as given in US10716826B2, “Compositions for overcoming anti-cancer drug-resistance or compositions for anti-cancer activity employing CAGE-derived peptides” (L-Base Co., Ltd., priority 2015, dated 2020).
Entries after “also recorded” stand apart in the source; their conditions may differ.

Experiments:
CAGE-GSK3β inter-binding [1] = molecular target: T1, CAGE-GSK3β inter-binding (Homo sapiens, UniProt Q86TM3); experiment: Western blot and immunoprecipitation in taxol-resistance melanoma cell strain; format: cell-based; parameters: endogenous in cells; host or cells: Malme3M^R-Taxol (A2); Malme3M^R, SNU387^R (printed SNU3SM^R/SNU38^R), AGS^R (A3); conditions: Malme3M^R-Taxol; for CAGE-GSK3β inter-binding: immunoprecipitation
T1 sequence (Q86TM3 whole entry): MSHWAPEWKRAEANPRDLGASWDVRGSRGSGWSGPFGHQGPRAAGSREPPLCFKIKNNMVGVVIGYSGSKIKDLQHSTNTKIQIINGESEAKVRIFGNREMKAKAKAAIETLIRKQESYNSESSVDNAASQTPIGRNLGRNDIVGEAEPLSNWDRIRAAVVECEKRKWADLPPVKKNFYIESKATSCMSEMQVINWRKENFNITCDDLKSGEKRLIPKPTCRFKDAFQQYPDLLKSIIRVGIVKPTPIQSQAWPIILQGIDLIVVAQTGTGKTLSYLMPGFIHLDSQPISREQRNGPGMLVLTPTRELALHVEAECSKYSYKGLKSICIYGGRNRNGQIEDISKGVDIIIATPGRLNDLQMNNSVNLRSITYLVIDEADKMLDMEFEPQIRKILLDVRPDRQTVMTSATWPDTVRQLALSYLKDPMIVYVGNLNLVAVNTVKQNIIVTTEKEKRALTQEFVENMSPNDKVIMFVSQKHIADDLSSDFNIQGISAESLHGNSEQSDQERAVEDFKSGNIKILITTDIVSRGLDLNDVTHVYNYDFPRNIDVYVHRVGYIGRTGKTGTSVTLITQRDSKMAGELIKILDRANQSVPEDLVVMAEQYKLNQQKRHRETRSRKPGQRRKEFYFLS
Experimental: (§1) To confirm an affection of CAGE-derived oligopeptide to the interbinding and GSK3β Ser9 phosphorylation of a CAGE, a GTGKT (Sequence No.1) peptide and a specific-residue deleted and mutated peptide based on the GTGKT peptide were prepared and, after collecting proteins by a known method after transfection into respective cell stains, the Western blot and the immunoprecipitation were preformed to inspect an anticancer drug-resistance induction mechanism of the CAGE. GTGKT includes ATP binding sites of CAGE (the right panel of FIG. 3A).
To examine residues necessary for anticancer activity of a GTGKT peptide, after preparing a peptide for which the 273′rd Thr residue is deleted (GTGK) or substituted (GTGKA, sequence No. 2) with Ala in CAFE, and preparing a peptide for which the 272′nd […] residue is substituted (GTGRT) with Arg, the same manner was performed.

[2] = system: Malme3M^R, SNU38M^R cell strains; experiment: apoptosis against an anticancer drug (FAK and PARP cleavage, Western blot); format: cell-based; conditions: melanoma and liver cancer cell strains
CAGE-GSK3β inter-binding [3] = molecular target: T1, CAGE-GSK3β inter-binding; experiment: Western blot and immunoprecipitation in celastrol-resistance cell strains; format: cell-based; parameters: endogenous in cells; host or cells: Malme3M^R-Taxol (A2); Malme3M^R, SNU387^R (printed SNU3SM^R/SNU38^R), AGS^R (A3); conditions: for expression level of Cyclin D1 / inter-binding between CAGE and GSK3β proteins: celastrol-resistance cell strains (melanoma, liver cancer, gastric cancer)
Experimental: as §1

[4] = system: Malme3M^R, SNU38M^R, AGS^R cell strains; experiment: MTT assay of anticancer drug resistance; format: cell-based; conditions: celastrol-resistance cell strains
Experimental: To confirm anticancer activity of a GTGKT-based oligopeptide, the MIT assay and the western blot according to a known method was performed using an immunodeficiency mouse. Then, it could be seen how the GKCKT-based oligopeptide affected tumor generation.
After transfecting a GTGKT peptide into melanoma, liver-cancer, and gastric-cancer cell strains (Malme3M^R, SNU38M^R, AGS^R) by concentration, anticancer drug resistance was inspected through the MTT assay.

[5] = molecular target: reassociated CAGE protein (Homo sapiens, UniProt Q86TM3); experiment: in vitro kinase assay: phosphorylation of GSK3β Ser9 peptide by reassociated CAGE protein; format: biochemical; conditions: RTTSFAE peptide as substrate
Chain of reassociated CAGE protein (Q86TM3 whole entry): as above
Experimental: A GSK3β-described peptide RTTSFAE including GSK3β Ser9 residues was prepared for a temperament (the left panel of FIG. 3A) and phosphorylation of the GSK3β Ser9 residues by a reassociated CAGE protein was confirmed through an in vitro kinase assay by using the RTTSFAE peptide as the temperament (the left panel of FIG. 4B).

CAGE = molecular target: T2, CAGE (Homo sapiens, UniProt Q86TM3); experiment: binding of peptide to CAGE in anticancer drug-resistance cell strains
T2 construct: endogenous in cells; host or cells: anticancer drug-resistance cell strains (Malme3M^R, SNU387^R)
T2 sequence (Q86TM3 whole entry): as above

[6] = system: tumor from Malme3MR, SNU38R cell strains; experiment: tumor generation in immunodeficiency mouse, peptide injected into tail vein; format: in vivo; conditions: 5 times in total every 3 days for 2 weeks
Experimental: If a tumor grew up to a size enough to be measured, a digital gauge was used to a size of the tumor in a uniform interval and the tumor size was calculated by a known equation (the widest length [the shortest length]^2×0.5). After inducing a tumor in the same manner, taxol was injected into a vein of the mouse's tail for inspection to tumor generation and anticancer drug resistance.
To inspect an affection of GKGKT peptide to tumor generation, after injecting high-CAGE melanoma and liver-cancer cell strains (Malme3MR, SNU38R) into the side abdomen of an immunodeficiency mouse by a known method and then inducing a tumor, the GTGKT peptide was injected into a vein of the mouse's tail 5 times in total every 3 days for 2 weeks and a size variation of the tumor was examined. As a result, it could be seen from FIG. 8A that the GTGKT peptide reduced a size of the tumor due to the cancer cell strains.

CAGE-GSK3β inter-binding [7] = molecular target: T1, CAGE-GSK3β inter-binding; experiment: Western blot and immunoprecipitation of tumor tissue after the mouse experiment; format: in vivo; parameters: from tissue; host or cells: xenograft tumour tissue from Malme3M^R / SNU387^R cells in immunodeficiency mouse
Excerpt: After finishing the experiment, a protein was collected from the tumor tissue through a known method, and then activity of protein expression and an inter-binding state were conformed through the Western blot and the immunoprecipitation.

Substance | protein accumulation / expression level of Cyclin D1 (CAGE-GSK3β inter-binding [1]; Western blot) | CAGE-GSK3β inter-binding (CAGE-GSK3β inter-binding [1]) | apoptosis against an anticancer drug [2] | expression level of Cyclin D1 (CAGE-GSK3β inter-binding [3]) | inter-binding between CAGE and GSK3β proteins (CAGE-GSK3β inter-binding [3]) | anticancer drug resistance [4] | phosphorylation of GSK3β Ser9 residues due to the reassociated CAGE protein [5] | phosphorylation of GSK3β Ser9 residues due to the reassociated CAGE protein ([5]; listed as GTCKT) | binding to CAGE (CAGE) | phosphorylation of GSK3β Ser9 residues (CAGE-GSK3β inter-binding [1]; Western blot) | size of the tumor [6] | expression of MDR1 in tumor tissue (CAGE-GSK3β inter-binding [7]; Western blot) | phosphorylation state of GSK3β Ser9 in tumor tissue (CAGE-GSK3β inter-binding [7]; Western blot) | protein expression of Cyclin D1 in tumor tissue (CAGE-GSK3β inter-binding [7]; Western blot) | inter-binding between CAGE and GSK3β proteins in tumor tissue (CAGE-GSK3β inter-binding [7]; immunoprecipitation) | phosphorylation state of GSK3β Ser9 (CAGE-GSK3β inter-binding [3]; Malme3M^R, SNU38^R treated with peptide)
GTGKA (CAGE-derived peptide) [GTGKT peptide in which the 273rd Thr residue is substituted with Ala] | control an expression level of Cyclin D1 | suppressed | induced cell apoptosis | control an expression level of Cyclin D1 | suppress | – | – | – | – | – | – | – | – | – | – | –
GTGKT (CAGE-derived peptide) | suppress | hindered | induced apoptosis | control an expression level of Cyclin D1; also recorded: suppressed | suppress; also recorded: hindered | suppressed | suppressed in phosphorylation | suppressed | bound specifically | suppress | reduced | reduced | dephosphorylation | decrease | suppressed | suppressed dephosphorylation
